From article PMC9436414 come the findings set out here.

Common to all, as to test: purified protein
Substrate in series [1]: N[C@@H](CO)C(=O)O
Particulars: 7 mM oxaloacetate as acceptor, 50 mM HEPES/KOH pH 7.5, 37 °C, pH 7.5.

Substrate in series [2]: O=C(O)CC(=O)C(=O)O
Particulars: 100 mM serine as amine donor, 50 mM HEPES/KOH pH 7.5, 37 °C, pH 7.5.

Substrate in series [3]: N[C@H](CO)C(=O)O
Particulars: DCPIP-coupled assay, 37 °C, exact D-serine reaction mix not stated.

Substrate in series [4]: C[C@@H](N)C(=O)O
Particulars: 200 mM HEPES/KOH pH 7.5, 0.1 mM DCPIP, 1.5 mM PES, 10 mM KCN, 37 °C, pH 7.5.

B1: BhcA (Paracoccus denitrificans PD1222) (protein)
chain: MTSQNPIFIPGPTNIPEEMRKAVDMPTIDHRSPVFGRMLHPALEGVKKVLKTTQAQVFLFPSTGTGGWETAITNTLSPGDKVLAARNGMFSHRWIDMCQRHGLDVTFVETPWGEGVPADRFEEILTADKGHEIRVVLATHNETATGVKSDIAAVRRALDAAKHPALLFVDGVSSIGSMDFRMDEWGVDIAVTGSQKGFMLPPGLAIVGFSPKAMEAVETARLPRTFFDIRDMATGYARNGYPYTPPVGLINGLNASCERILAEGLENVFARHHRIASGVRAAVDAWGLKLCAVRPELYSDSVSAIRVPEGFDANLIVSHALETYDMAFGTGLGQVAGKVFRIGHLGSLTDAMALSGIATAEMVMADLGLPIQLGSGVAAAQEHYRQTTAAAQKKAA
On to B1, for which, in the series “purified protein [1]”, the Km was determined as 7 mM and the kcat is 25.9 s⁻¹. Besides, in the series “purified protein [2]”, the Km turned out to be 0.23 ± 0.03 mM, the kcat turned out to be 31.2 s⁻¹ and the kcat/Km came to 140000 M⁻¹ s⁻¹.

B2: DadA (Escherichia coli K-12) (protein)
chain: MRVVILGSGVVGVASAWYLNQAGHEVTVIDREPGAALETSAANAGQISPGYAAPWAAPGVPLKAIKWMFQRHAPLAVRLDGTQFQLKWMWQMLRNCDTSHYMENKGRMVRLAEYSRDCLKALRAETNIQYEGRQGGTLQLFRTEQQYENATRDIAVLEDAGVPYQLLESSRLAEVEPALAEVAHKLTGGLQLPNDETGDCQLFTQNLARMAEQAGVKFRFNTPVDQLLCDGEQIYGVKCGDEVIKADAYVMAFGSYSTAMLKGIVDIPVYPLKGYSLTIPIAQEDGAPVSTILDETYKIAITRFDNRIRVGGMAEIVGFNTELLQPRRETLEMVVRDLYPRGGHVEQATFWTGLRPMTPDGTPVVGRTRFKNLWLNTGHGTLGWTMACGSGQLLSDLLSGRTPAIPYEDLSVARYSRGFTPSRPGHLHGAHS
On to B2, for which, in “purified protein [3]”, the Km is listed as 64.77 ± 9.28 mM, the kcat was 0.37 s⁻¹ and the kcat/Km was found to be 5.71 M⁻¹ s⁻¹. Moreover, in the series “purified protein [4]”, the Km is 1.26 ± 0.26 mM, the kcat came to 0.81 s⁻¹ and the kcat/Km amounted to 642 M⁻¹ s⁻¹.

In general, Km refers to the concentration of substrate that gives half-maximal velocity. As a reminder, the kcat is the number of substrate molecules converted per active site and unit of time at saturation. The kcat/Km is the turnover number divided by the Michaelis constant.
